Source: patent US9708383 (Novo Nordisk, dated 2017)
*1 amine or outer side, *2 acyl side, *3 side chain or, on linkers, in order; H or OH if unused. Where no end group is shown, it is not given here. Side-chain parts run from the residue outwards. [ ]: non-standard residue; d: D form. The star is where a group is joined. Decanoyl(10-(4-HOOC-PhO)) = O=C(O)c1ccc(OCCCCCCCCCC(=O)*)cc1; C18 diacid = O=C(O)CCCCCCCCCCCCCCCCC(=O)*; γGlu = O=C(O)[C@H](CCC(=O)[*:2])N[*:1]; Desaminohistidyl = O=C(CCc1c[nH]cn1)*; C12 diacid = O=C(O)CCCCCCCCCCC(=O)*; 13‑carboxytridecanoyl = C14 diacid; AEEA = NCCOCCOCC(=O)O; Aib = CC(C)(N)C(=O)O

B1: GLP-1 derivative of Example 65: [Aib8,Lys18,Glu22,Gln34]-GLP-1-(7-37)-peptide (peptide)
peptide: H[Aib]EGTFTSDVSK([γGlu-AEEA-AEEA-13‑carboxytridecanoyl])YLEEQAAK([γGlu-AEEA-AEEA-13‑carboxytridecanoyl])EFIAWLVQGRG
B2: GLP-1 derivative of Example 36: [Aib8,Lys18,Glu22,Val25,Arg26,Lys31,Gly34]-GLP-1-(7-34)-peptide (peptide)
peptide: H[Aib]EGTFTSDVSK([γGlu-AEEA-AEEA-13‑carboxytridecanoyl])YLEEQAVREFIAK([γGlu-AEEA-AEEA-13‑carboxytridecanoyl])LVG
B3: GLP-1 derivative of Example 32: [Imp7,Lys18,Glu22,Arg26,Lys27,His31,Gly34]-GLP-1-(7-34)-peptide (peptide)
peptide: [Desaminohistidyl]AEGTFTSDVSK([γGlu-AEEA-AEEA-13‑carboxytridecanoyl])YLEEQAARK([γGlu-AEEA-AEEA-13‑carboxytridecanoyl])FIAHLVG
B4: GLP-1 derivative of Example 33: [Imp7,Lys18,Glu22,Arg26,Lys27,His31,Gly34]-GLP-1-(7-34)-peptide (peptide)
peptide: [Desaminohistidyl]AEGTFTSDVSK([AEEA-AEEA-γGlu-Decanoyl(10-(4-HOOC-PhO))])YLEEQAARK([AEEA-AEEA-γGlu-Decanoyl(10-(4-HOOC-PhO))])FIAHLVG
B5: GLP-1 derivative of Example 71: [Aib8,Lys18,Glu22,Gln34]-GLP-1-(7-37)-peptide (peptide)
peptide: H[Aib]EGTFTSDVSK([AEEA-AEEA-AEEA-AEEA-Decanoyl(10-(4-HOOC-PhO))])YLEEQAAK([AEEA-AEEA-AEEA-AEEA-Decanoyl(10-(4-HOOC-PhO))])EFIAWLVQGRG
B6: GLP-1 derivative of Example 69: [Aib8,Lys18,Glu22,Gln34]-GLP-1-(7-37)-peptide (peptide)
peptide: H[Aib]EGTFTSDVSK([AEEA-AEEA-AEEA-AEEA-γGlu-Decanoyl(10-(4-HOOC-PhO))])YLEEQAAK([AEEA-AEEA-AEEA-AEEA-γGlu-Decanoyl(10-(4-HOOC-PhO))])EFIAWLVQGRG
B7: GLP-1 derivative of Example 31: [Imp7,Lys18,Glu22,Arg26,Lys27,His31,Gly34]-GLP-1-(7-34)-peptide (peptide)
peptide: [Desaminohistidyl]AEGTFTSDVSK([AEEA-AEEA-13‑carboxytridecanoyl])YLEEQAARK([AEEA-AEEA-13‑carboxytridecanoyl])FIAHLVG
B8: GLP-1 derivative of Example 23: [Aib8,Lys18,Glu22,Gln34]-GLP-1-(7-37)-peptide (peptide)
peptide: H[Aib]EGTFTSDVSK([AEEA-AEEA-γGlu-C18 diacid])YLEEQAAK([AEEA-AEEA-γGlu-C18 diacid])EFIAWLVQGRG
B9: GLP-1 derivative of Example 22: [Imp7,Aib8,Lys18,Glu22,Val25,Arg26,Lys31,Gly34]-GLP-1-(7-34)-peptide (peptide)
peptide: [Desaminohistidyl][Aib]EGTFTSDVSK([AEEA-AEEA-γGlu-C12 diacid])YLEEQAVREFIAK([AEEA-AEEA-γGlu-C12 diacid])LVG
B10: GLP-1 derivative of Example 63: [Aib8,Lys18,Glu22,Val25,Arg26,Leu27]-GLP-1-(7-34)-peptide (peptide)
peptide: H[Aib]EGTFTSDVSK([AEEA-AEEA-γGlu-13‑carboxytridecanoyl])YLEEQAVRLFIAWLVK([AEEA-AEEA-γGlu-13‑carboxytridecanoyl])
B11: GLP-1 derivative of Example 37: [Aib8,Lys18,Glu22,Val25,Arg26,Lys31]-GLP-1-(7-33)-peptide amide (peptide)
peptide: H[Aib]EGTFTSDVSK([AEEA-AEEA-γGlu-13‑carboxytridecanoyl])YLEEQAVREFIAK([AEEA-AEEA-γGlu-13‑carboxytridecanoyl])LV-NH2
notes: Second site printed without its number (N^ε-)
B12: GLP-1 derivative of Example 39: [Aib8,Lys18,Glu22,Gln34]-GLP-1-(7-37)-peptide (peptide)
peptide: H[Aib]EGTFTSDVSK([AEEA-AEEA-γGlu-C12 diacid])YLEEQAAK([AEEA-AEEA-γGlu-C12 diacid])EFIAWLVQGRG

Tests used:
human GLP-1 receptor [1] = biological target: T1, human GLP-1 receptor (human, UniProt P43220 24-463); experiment: SPA, 2.0% vs 0.005% HSA
T1 construct: whole, on cells; Used as purified membranes of the transfected hamster cells, not whole cells; also called hGLP-1

human GLP-1 receptor [2] = biological target: T1, human GLP-1 receptor; experiment: SPA, displacement of 125I-GLP-1(7-36)NH2, 0.005% HSA

Binder	ratio IC50 high HSA/IC50 low HSA (human GLP-1 receptor [1])	IC50 (human GLP-1 receptor [2])
B1	> 1	< 1000 nM
B2	> 1	< 1000 nM
B3	> 1	< 1000 nM
B4	> 1	< 1000 nM
B5	> 1	< 1000 nM
B6	> 1	< 1000 nM
B7	> 1	< 1000 nM
B8	> 1	< 1000 nM
B9	> 1	< 1000 nM
B10	> 1	< 1000 nM
B11	> 1	< 1000 nM
B12	> 1	< 1000 nM
